According to patent US20260250420A1 (SICHUAN KELUN BIOTECH BIOPHARMACEUTICAL, published 2026):

T1: human PTK7 on cells (tumor cells endogenously expressing PTK7); CHO-hPTK7, CHO-S-hPTK7 and 293T-hPTK7 … (human, UniProt Q13308 31-1070)
T1 construct: whole, on cells; The cell line of each value is named under assay; also called H1299; H358
T1 sequence (looked up): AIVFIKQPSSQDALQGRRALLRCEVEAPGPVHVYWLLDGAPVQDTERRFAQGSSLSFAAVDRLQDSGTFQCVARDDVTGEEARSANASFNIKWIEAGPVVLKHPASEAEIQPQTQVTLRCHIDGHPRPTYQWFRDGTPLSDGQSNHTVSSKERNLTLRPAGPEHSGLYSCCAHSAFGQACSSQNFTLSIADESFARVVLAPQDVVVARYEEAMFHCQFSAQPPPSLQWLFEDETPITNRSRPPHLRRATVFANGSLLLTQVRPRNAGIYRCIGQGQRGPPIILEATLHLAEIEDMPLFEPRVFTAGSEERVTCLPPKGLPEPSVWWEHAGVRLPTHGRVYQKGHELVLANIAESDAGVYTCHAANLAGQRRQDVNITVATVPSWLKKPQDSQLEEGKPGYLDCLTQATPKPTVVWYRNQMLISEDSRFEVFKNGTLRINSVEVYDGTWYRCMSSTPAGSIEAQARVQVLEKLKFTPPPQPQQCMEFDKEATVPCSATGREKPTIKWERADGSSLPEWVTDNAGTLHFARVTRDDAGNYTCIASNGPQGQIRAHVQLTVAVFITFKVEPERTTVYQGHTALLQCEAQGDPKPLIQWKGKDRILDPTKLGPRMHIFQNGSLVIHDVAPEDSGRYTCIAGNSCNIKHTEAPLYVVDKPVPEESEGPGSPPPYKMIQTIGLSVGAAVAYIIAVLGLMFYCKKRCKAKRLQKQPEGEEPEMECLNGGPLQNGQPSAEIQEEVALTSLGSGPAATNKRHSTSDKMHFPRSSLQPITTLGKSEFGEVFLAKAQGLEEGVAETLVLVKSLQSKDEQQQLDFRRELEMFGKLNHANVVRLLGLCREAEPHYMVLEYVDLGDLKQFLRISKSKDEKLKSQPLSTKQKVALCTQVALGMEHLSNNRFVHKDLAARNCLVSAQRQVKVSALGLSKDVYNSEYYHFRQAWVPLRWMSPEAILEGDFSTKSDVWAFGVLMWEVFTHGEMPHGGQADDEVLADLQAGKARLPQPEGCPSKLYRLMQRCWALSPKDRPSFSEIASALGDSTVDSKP

T2: human Fc receptor protein CD32b (human, UniProt P31994 43-217, biotinylated)
T2 construct: Biotinylated protein captured on SA sensors
T2 sequence (looked up): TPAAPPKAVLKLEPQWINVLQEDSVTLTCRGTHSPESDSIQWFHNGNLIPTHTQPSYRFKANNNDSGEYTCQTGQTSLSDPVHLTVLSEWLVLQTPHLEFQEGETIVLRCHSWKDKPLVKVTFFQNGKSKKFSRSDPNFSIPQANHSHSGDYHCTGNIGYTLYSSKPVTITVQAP

T3: human Fc receptor protein CD32a (human, UniProt P12318 34-217, biotinylated)
T3 construct: Biotinylated protein captured on SA sensors
T3 sequence (looked up): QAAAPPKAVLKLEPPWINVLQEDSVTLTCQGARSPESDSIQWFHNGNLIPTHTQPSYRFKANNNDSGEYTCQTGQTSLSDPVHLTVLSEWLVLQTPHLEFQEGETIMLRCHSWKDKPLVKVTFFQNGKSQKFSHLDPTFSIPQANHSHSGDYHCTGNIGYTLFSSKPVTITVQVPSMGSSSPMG


Legend:
[1] = biological target: T1, human PTK7 on cells (tumor cells …); test: flow cytometry on T47D cells
Text: (§1) A flow cytometer (Beckman, Cytoflex) was used for detecting the affinity of the anti-human PTK7 chimeric and humanized antibodies with human non-small cell lung cancer cells H1299, human lung adenocarcinoma cells H1975, human breast cancer cells T47D, human ovarian cancer cells OVCAR-3 (all purchased from NANJING COBIOER BIOSCIENCES CO., LTD) and CHO-hPTK7 overexpression cells.
(§2) The adherent cells were digested by using a pancreatin (Gibco) solution; a proper amount of cells were counted and taken, washed twice by using 1×PBS, and re-suspended in a 1% BSA solution; and then the cells were transferred into a 96-well deep plate at a density of 50 μl/well; a candidate antibody was diluted by using 1% BSA, then 50 μl of diluted antibody was added into the deep plate containing the cells, and incubated for 40 min at 4° C.; the cells were washed twice by using PBS, then 50 μl of diluted secondary antibody was added into each well, uniformly mixed, and incubated for 30 min at 4° C.; and the cells were washed twice by using PBS, then re-suspended in 400 μl of PBS, and subjected to examination by flow cytometer.

[2] = biological target: T1, human PTK7 on cells (tumor cells …); test: cell-based or functional assay
[3] = biological target: T1, human PTK7 on cells (tumor cells …); test: flow cytometry on CHO-hPTK7 overexpression cells
Text: as §1, §2

[4] = biological target: T1, human PTK7 on cells (tumor cells …); test: flow cytometry on H1975 cells
Text: as §1, §2

[5] = biological target: T4, rat PTK7 protein (extracellular sequence of rat PTK7 with C-terminal 6×His tag) (rat, UniProt A0A8I6ALM9 40-713); test: ELISA, coated rat PTK7 protein
T4 construct: extracellular domain; Expressed transiently in HEK293 cells

[6] = biological target: T1, human PTK7 on cells (tumor cells …); test: flow cytometry on H1299 cells
Text: as §1, §2

[7] = biological target: T2, human Fc receptor protein CD32b; test: BLI (ForteBio), biotinylated receptor on SA sensor, antibody from 5,000 nM, 1:1 global fit
Text: (§3) The dynamic affinity of the antibodies 101A6HZ, 101A6HZm and Hu24 with human Fc receptor proteins CD16a, CD32a, CD32b, CD64 and FcRn was detected through ForteBio (Pall life sciences).

[8] = biological target: T3, human Fc receptor protein CD32a; test: as above
Text: as §3

[9] = biological target: T1, human PTK7 on cells (tumor cells …); test: flow cytometry on OVCAR-3 cells
Text: as §1, §2

EC50 [1] [µg/mL]	FADU cell endocytosis activity, EC50 [2] [µg/mL]	EC50 [3] [µg/mL]	EC50 [4] [µg/mL]	binding result [5]	EC50 [6] [µg/mL]	Kd [7] [nM]	Kd [8] [nM]	EC50 [9] [µg/mL]	Binder
0.0968	0.115	0.176	0.178	no binding	0.0843	1780	2270	–	101A6HZ (anti-human PTK7 humanized antibody) (antibody, human IgG1, kappa) heavy: not shown light: DIVMTQSPDSLAVSLGERATINCKASQDVGSAVIWYQQKPGQSPKLLIYWASTRHTGVPDRFSGSGSGTDFTLTISSLQAEDVAVYYCQQYSSYPLTFGQGTKLEIKRTVAAPSVFIFPPSDEQLKSGTASVVCLLNNFYPREAKVQWKVDNALQSGNSQESVTEQDSKDSTYSLSSTLTLSKADYEKHKVYACEVTHQGLSSPVTKSFNRGEC
0.0861	0.18	0.308	0.134	–	0.0649	1760	1730	0.123	Hu24 (PTK7 control antibody, taken from Hu24 in the Patent CN201580030255) (antibody) chain 1: QVQLVQSGPEVKKPGASVKVSCKASGYTFTDYAVHWVRQAPGKRLEWIGVISTYNDYTYNNQDFKGRVTMTRDTSASTAYMELSRLRSEDTAVYYCARGNSYFYALDYWGQGTSVTVSS chain 2: EIVLTQSPATLSLSPGERATLSCRASESVDSYGKSFMHWYQQKPGQAPRLLIYRASNLESGIPARFSGSGSGTDFTLTISSLEPEDFAVYYCQQSNEDPWTFGGGTKLEIK
0.217	0.147	–	0.0767	no binding	0.0475	–	–	0.0613	64A10HZ (anti-human PTK7 humanized antibody) (antibody, human IgG1, kappa, V domains shown, Human IgG1 heavy chain constant region and human Kappa light chain constant region; expressed in CHO-S cells) VH: QVQLQESGPGLVKPSETLSLTCTVSGFSLTSYGVYWVRQPPGKGPEWLGVIWTSGNTNYNPSLKSRLTISKDNSKNQVSLKLSSVTAADTAVYYCVKHDGGNYVGVMNYWGQGTLVTVSS VL: EIVMTQSPDFQSVTPKEKVTITCRASQSISDYLHWYQQKPDQSPKLLIKYASQSISGVPSRFSGSGSGSDFTLTINSLEAEDAATYYCQNGHSFPPTFGQGTKLEIKR
